Laboratory results reported in patent publication US20210253718A1, “FRIZZLED5 PROTEIN-BINDING AGENTS” (Modmab Therapeutics Corporation, priority 2016, published 2021).

T1: FZD8 cysteine-rich domain (CRD), MYC-tagged and GPI-anchored on CHO cells (human)
T1 sequence (chain, GPI anchor): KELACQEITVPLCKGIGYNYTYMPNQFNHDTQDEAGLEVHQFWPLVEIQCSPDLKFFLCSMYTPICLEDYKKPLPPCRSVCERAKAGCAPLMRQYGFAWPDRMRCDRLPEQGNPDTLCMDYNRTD

B1: Fab-2905 (Fab, V domains shown)
VH: EVQLVESGGGLVQPGGSLRLSCAASGFNLSYYYMHWVRQAPGKGLEWVASIYSSYSYTSYADSVKGRFTISADTSKNTAYLQMNSLRAEDTAVYYCARSGYALDYWGQGTLVTVSS
VL: DIQMTQSPSSLSASVGDRVTITCRASQSVSSAVAWYQQKPGKAPKLLIYSASSLYSGVPSRFSGSRSGTDFTLTISSLQPEDFATYYCQQSSWYYGYPFTFGQGTKVEIK
B2: Fab-2925 (Fab, V domains shown)
VH: EVQLVESGGGLVQPGGSLRLSCAASGFNLSYSSMHWVRQAPGKGLEWVASIYPSYGSTYYADSVKGRFTISADTSKNTAYLQMNSLRAEDTAVYYCARYGYFGLDYWGQGTLVTVSS
VL: DIQMTQSPSSLSASVGDRVTITCRASQSVSSAVAWYQQKPGKAPKLLIYSASSLYSGVPSRFSGSRSGTDFTLTISSLQPEDFATYYCQQAWVYASLFTFGQGTKVEIK

Biological target: T1, FZD8 cysteine-rich domain (CRD), MYC-tagged and GPI-anchored on CHO cells (human)
Assay: flow cytometry, CHO-CRD cells

Binder | median fluorescence
B1 | 8.17
B2 | 7.7
